The chains are these.
T1: Eps15IDR (Eps15's own intrinsically disordered region) (human, UniProt P42566 481-896)
T1 construct: Eps15, UniProt P42566, C-terminal intrinsically disordered region; limits 481-896 from the N-terminal residues 481-521, the overlapping stretches 481-581 to 761-896 and the primer names Eps15_481_Nde1_fw and Eps15_896_Not1_rv; in pET28-6His-GB1; 15N-labelled where it was the observed protein; source: E. coli Rosetta (DE3), purified (nickel column, TEV cleavage, SEC); not shown: 6His, N-terminal, …
T1 sequence (looked up): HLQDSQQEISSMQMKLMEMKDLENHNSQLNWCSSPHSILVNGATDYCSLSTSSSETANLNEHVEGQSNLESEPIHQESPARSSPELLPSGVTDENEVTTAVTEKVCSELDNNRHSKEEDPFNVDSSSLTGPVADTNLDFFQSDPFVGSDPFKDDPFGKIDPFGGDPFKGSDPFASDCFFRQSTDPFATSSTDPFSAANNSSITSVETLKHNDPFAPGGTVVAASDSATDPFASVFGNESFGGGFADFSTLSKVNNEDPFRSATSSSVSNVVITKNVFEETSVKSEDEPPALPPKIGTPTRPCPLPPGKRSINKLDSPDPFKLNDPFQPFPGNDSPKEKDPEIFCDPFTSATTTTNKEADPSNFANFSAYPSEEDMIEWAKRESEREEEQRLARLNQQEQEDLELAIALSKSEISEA

B1: Eps15 EH2 domain (domain or fragment, human, UniProt P42566 121-215, looked up)
chain: PWAVKPEDKAKYDAIFDSLSPVNGFLSGDKVKPVLLNSKLPVDILGRVWELSDIDHDGMLDRDEFAVAMFLVYCALEKEPVPMSLPPALVPPSKR
notes: Eps15, UniProt P42566, second EH domain; in pET41c; The NdeI primer puts a start methionine before P121; non-cleavable C-terminal His-tag from pET41c; 15N-labelled where it was the observed protein; source: E. coli Rosetta (DE3), purified (nickel column, SEC); not shown: His-tag, C-terminal, kept
B2: Dab2_(320–495) (domain or fragment, UniProt P98082 320-495, looked up)
chain: KKENSSSSSTPLSNGPLNGDVDYFGQQFDQISNRTGKQEAQAGPWPFSSSQTQPAVRTQNGVSEREQNGFSVKSSPNPFVGSPPKGLSIQNGVKQDLESSVQSSPHDSIAIIPPPQSTKPGRGRRTAKSSANDLLASDIFAPPVSEPSGQASPTGQPTALQPNPLDLFKTSAPAPV
notes: gene bought from Twist Bioscience, in pET28a; 15N-labelled where it was the observed protein; The S328C mutant was used only for microscopy of droplets and is not written; also called Dab2 fragment; source: E. coli Rosetta (DE3), purified (nickel column, SEC); not shown: His-tag, C-terminal, kept
B3: Eps15 EH123 (EH1-EH2-EH3, the full EH-domain containing region) (domain or fragment, human, UniProt P42566 1-310, looked up)
chain: MAAAAQLSLTQLSSGNPVYEKYYRQVDTGNTGRVLASDAAAFLKKSGLPDLILGKIWDLADTDGKGILNKQEFFVALRLVACAQNGLEVSLSSLNLAVPPPRFHDTSSPLLISGTSAAELPWAVKPEDKAKYDAIFDSLSPVNGFLSGDKVKPVLLNSKLPVDILGRVWELSDIDHDGMLDRDEFAVAMFLVYCALEKEPVPMSLPPALVPPSKRKTWVVSPAEKAKYDEIFLKTDKDMDGFVSGLEVREIFLKTGLPSTLLAHIWSLCDTKDCGKLSKDQFALAFHLISQKLIKGIDPPHVLTPEMIPP
notes: Eps15, UniProt P42566, the three N-terminal EH domains in row; in pET28-6His-GB1; 15N-labelled where it was the observed protein; source: E. coli Rosetta (DE3), purified (nickel column, TEV cleavage, SEC); not shown: 6His, N-terminal, cleaved; GB1, N-terminal, cleaved

Settings in all cases: both partners purified
In the assay “Dab2_(320–495)” the target is B2. The experiment in a line: NMR CPMG relaxation dispersion; 100 µM 15N Dab2(320-495) with 10 µM (10%) EH2; 600 and 900 MHz; 12 residues of helixN and the NPF motif fitted globally, two-site exchange model (ChemEx); NMR buffer pH 6, 25 °C.
Assay [1] has as its target B3. The experiment in a line: NMR titration; competition: equimolar EH123, Eps15IDR and Dab2(320-495) together, observed in turn on 15N EH123, 15N Eps15IDR and 15N Dab2(320-495); NMR buffer pH 6, 25 °C.
The target of assay [2] is T1, Eps15IDR (Eps15's own intrinsically …). The experiment in a line: NMR titration; equimolar unlabelled Eps15IDR (200 µM) added to 200 µM 15N EH123; 1H-15N TROSY-HSQC CSPs and R1rho at 1200 MHz; NMR buffer pH 6, 25 °C.

The term Kd denotes the free concentration of one partner at which half of the binding sites on the other are occupied at equilibrium, for simple one-to-one binding. A low value points to higher affinity.

B1 yielded a Kd with Dab2_(320–495) of 196 µM.
In the case of B2, the binding result in assay [1] was “binds”.
Turning to B3, the binding result in assay [2] is recorded as “binds”.

Values taken from publication PMC12370899, “Promiscuous and multivalent interactions between Eps15 and partner protein Dab2 generate a complex interaction network” (Nature Communications, 2025).
